The values that follow come from article PMC4763255, “Diversity between mammalian tolloid proteinases: Oligomerisation and non-catalytic domains influence activity and specificity” (Scientific Reports, 2016).

B1: mTLD CUB4-CUB5 (domain or fragment, UniProt P13497 747-976, looked up)
chain: CDHKVTSTSGTITSPNWPDKYPSKKECTWAISSTPGHRVKLTFMEMDIESQPECAYDHLEVFDGRDAKAPVLGRFCGSKKPEPVLATGSRMFLRFYSDNSVQRKGFQASHATECGGQVRADVKTKDLYSHAQFGDNNYPGGVDCEWVIVAEEGYGVELVFQTFEVEEETDCGYDYMELFDGYDSTAPRLGRYCGSGPPEEVYSAGDSVLVKFHSDDTITKKGFHLRYTST
notes: mammalian tolloid (mTLD), product of the Bmp1 gene; domains CUB4 and CUB5; Cloned at OPPF-UK in pOPINTTGneo; also called mTLD-C4C5; C4C5 from mTLD
B2: TLL1 CUB4-CUB5 (domain or fragment, UniProt O43897 774-1003, looked up)
chain: CEQKIHSPSGLITSPNWPDKYPSRKECTWEISATPGHRIKLAFSEFEIEQHQECAYDHLEVFDGETEKSPILGRLCGNKIPDPLVATGNKMFVRFVSDASVQRKGFQATHSTECGGRLKAESKPRDLYSHAQFGDNNYPGQVDCEWLLVSERGSRLELSFQTFEVEEEADCGYDYVELFDGLDSTAVGLGRFCGSGPPEEIYSIGDSVLIHFHTDDTINKKGFHIRYKSI
notes: mammalian tolloid like-1 (TLL-1); domains CUB4 and CUB5; Cloned at OPPF-UK in pOPINTTGneo; also called TLL1-C4C5; C4C5 from TLL-1
B3: mTLD CUB1-CUB2-EGF1 (domain or fragment, UniProt P13497 322-588, looked up)
chain: CGETLQDSTGNFSSPEYPNGYSAHMHCVWRISVTPGEKIILNFTSLDLYRSRLCWYDYVEVRDGFWRKAPLRGRFCGSKLPEPIVSTDSRLWVEFRSSSNWVGKGFFAVYEAICGGDVKKDYGHIQSPNYPDDYRPSKVCIWRIQVSEGFHVGLTFQSFEIERHDSCAYDYLEVRDGHSESSTLIGRYCGYEKPDDIKSTSSRLWLKFVSDGSINKAGFAVNFFKEVDECSRPNRGGCEQRCLNTLGSYKCSCDPGYELAPDKRRCE
notes: mammalian tolloid (mTLD), product of the Bmp1 gene; domains CUB1, CUB2 and EGF1 (shared with BMP-1); Cloned at OPPF-UK in pOPINTTGneo; also called mTLD-C1C2E1; C1C2E1 from mTLD/BMP1
B4: TLL2 CUB1-CUB2-EGF1 (domain or fragment, human, UniProt Q9Y6L7 351-617, looked up)
chain: CGETLQDTTGNFSAPGFPNGYPSYSHCVWRISVTPGEKIVLNFTSMDLFKSRLCWYDYVEVRDGYWRKAPLLGRFCGDKIPEPLVSTDSRLWVEFRSSSNILGKGFFAAYEATCGGDMNKDAGQIQSPNYPDDYRPSKECVWRITVSEGFHVGLTFQAFEIERHDSCAYDYLEVRDGPTEESALIGHFCGYEKPEDVKSSSNRLWMKFVSDGSINKAGFAANFFKEVDECSWPDHGGCEHRCVNTLGSYKCACDPGYELAADKKMCE
notes: mammalian tolloid like-2 (TLL-2), human; domains CUB1, CUB2 and EGF1; Cloned at OPPF-UK in pOPINTTGneo; also called TLL2-C1C2E1; C1C2E1 from TLL-2
B5: TLL1 CUB1-CUB2-EGF1 (domain or fragment, UniProt O43897 349-615, looked up)
chain: CGETLQESNGNLSSPGFPNGYPSYTHCIWRVSVTPGEKIVLNFTTMDLYKSSLCWYDYIEVRDGYWRKSPLLGRFCGDKLPEVLTSTDSRMWIEFRSSSNWVGKGFAAVYEAICGGEIRKNEGQIQSPNYPDDYRPMKECVWKITVSESYHVGLTFQSFEIERHDNCAYDYLEVRDGTSENSPLIGRFCGYDKPEDIRSTSNTLWMKFVSDGTVNKAGFAANFFKEEDECAKPDRGGCEQRCLNTLGSYQCACEPGYELGPDRRSCE
notes: mammalian tolloid like-1 (TLL-1); domains CUB1, CUB2 and EGF1; Cloned at OPPF-UK in pOPINTTGneo; also called TLL1-C1C2E1; C1C2E1 from TLL-1
B6: TLL2 CUB4-CUB5 (domain or fragment, human, UniProt Q9Y6L7 776-1005, looked up)
chain: CAHKISSVEGTLASPNWPDKYPSRRECTWNISSTAGHRVKLTFNEFEIEQHQECAYDHLEMYDGPDSLAPILGRFCGSKKPDPTVASGSSMFLRFYSDASVQRKGFQAVHSTECGGRLKAEVQTKELYSHAQFGDNNYPSEARCDWVIVAEDGYGVELTFRTFEVEEEADCGYDYMEAYDGYDSSAPRLGRFCGSGPLEEIYSAGDSLMIRFRTDDTINKKGFHARYTST
notes: mammalian tolloid like-2 (TLL-2), human; domains CUB4 and CUB5; Cloned at OPPF-UK in pOPINTTGneo; also called TLL2-C4C5; C4C5 from TLL-2
B7: human mammalian tolloid like-2 (TLL-2) (enzyme, UniProt Q9Y6L7 26-1015, looked up)
chain: ATTSRTERIWPGGVIPYVIGGNFTGSQRAIFKQAMRHWEKHTCVTFIERTDEESFIVFSYRTCGCCSYVGRRGGGPQAISIGKNCDKFGIVAHELGHVVGFWHEHTRPDRDQHVTIIRENIQPGQEYNFLKMEAGEVSSLGETYDFDSIMHYARNTFSRGVFLDTILPRQDDNGVRPTIGQRVRLSQGDIAQARKLYKCPACGETLQDTTGNFSAPGFPNGYPSYSHCVWRISVTPGEKIVLNFTSMDLFKSRLCWYDYVEVRDGYWRKAPLLGRFCGDKIPEPLVSTDSRLWVEFRSSSNILGKGFFAAYEATCGGDMNKDAGQIQSPNYPDDYRPSKECVWRITVSEGFHVGLTFQAFEIERHDSCAYDYLEVRDGPTEESALIGHFCGYEKPEDVKSSSNRLWMKFVSDGSINKAGFAANFFKEVDECSWPDHGGCEHRCVNTLGSYKCACDPGYELAADKKMCEVACGGFITKLNGTITSPGWPKEYPTNKNCVWQVVAPAQYRISLQFEVFELEGNDVCKYDFVEVRSGLSPDAKLHGRFCGSETPEVITSQSNNMRVEFKSDNTVSKRGFRAHFFSDKDECAKDNGGCQHECVNTFGSYLCRCRNGYWLHENGHDCKEAGCAHKISSVEGTLASPNWPDKYPSRRECTWNISSTAGHRVKLTFNEFEIEQHQECAYDHLEMYDGPDSLAPILGRFCGSKKPDPTVASGSSMFLRFYSDASVQRKGFQAVHSTECGGRLKAEVQTKELYSHAQFGDNNYPSEARCDWVIVAEDGYGVELTFRTFEVEEEADCGYDYMEAYDGYDSSAPRLGRFCGSGPLEEIYSAGDSLMIRFRTDDTINKKGFHARYTSTKFQDALHMKK
modifications: N-linked glycans (5 predicted from primary sequence; shift with PNGaseF)
notes: purified as a secreted protein; predicted mass of a monomer printed as 98.58 kDa; also called mTLL2; mTLL-2

What is called Kd is the concentration at which binding is half-saturated. By stoichiometry N is commonly meant a count of units in the complex or per binding partner.

In one data set the target is T1, ΔN-chordin (UniProt Q9H2X0 127-955).
T1 construct: chordin, N-terminally truncated form called ΔN-chordin
T1 sequence (looked up): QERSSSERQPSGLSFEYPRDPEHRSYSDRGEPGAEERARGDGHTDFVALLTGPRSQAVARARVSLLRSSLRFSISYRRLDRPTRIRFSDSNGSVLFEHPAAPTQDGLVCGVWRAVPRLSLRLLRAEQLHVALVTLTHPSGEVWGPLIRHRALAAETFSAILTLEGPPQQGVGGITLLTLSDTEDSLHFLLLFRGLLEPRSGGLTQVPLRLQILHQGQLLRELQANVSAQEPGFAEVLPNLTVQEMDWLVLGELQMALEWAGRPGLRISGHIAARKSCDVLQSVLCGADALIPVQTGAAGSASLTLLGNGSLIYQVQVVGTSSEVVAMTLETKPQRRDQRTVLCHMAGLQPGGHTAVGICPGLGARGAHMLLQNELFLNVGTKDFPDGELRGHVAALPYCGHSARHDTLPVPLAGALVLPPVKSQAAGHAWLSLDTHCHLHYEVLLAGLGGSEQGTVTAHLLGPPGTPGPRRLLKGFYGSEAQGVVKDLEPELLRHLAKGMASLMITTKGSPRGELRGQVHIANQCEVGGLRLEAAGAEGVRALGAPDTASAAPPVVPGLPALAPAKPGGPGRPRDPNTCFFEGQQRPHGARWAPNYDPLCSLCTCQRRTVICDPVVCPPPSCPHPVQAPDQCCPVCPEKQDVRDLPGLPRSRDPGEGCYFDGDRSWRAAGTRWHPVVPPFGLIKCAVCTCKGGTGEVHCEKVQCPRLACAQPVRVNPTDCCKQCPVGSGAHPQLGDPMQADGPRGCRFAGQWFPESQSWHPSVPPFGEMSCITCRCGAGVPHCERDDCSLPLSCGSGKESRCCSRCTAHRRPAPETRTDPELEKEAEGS
Put plainly: SPR; tolloid fragments immobilised on a GLC chip by amine coupling, ΔN-chordin injected as analyte at increasing concentrations; ProteOn XPR36; 10 mM HEPES, 150 mM NaCl, 2 mM CaCl2, 0.05% Tween 20, pH 7.4, 25 °C; 1:1 Langmuir model; triplicate. The following applies: both partners purified. For orientation: SPR reads the build-up and loss of mass on a sensor chip optically.
B1 showed a Kd of 190 ± 20 pM.
Same read-out and setting: with B2 the figure was 56 ± 10 pM; with B3, 278 pM.
In the case of B4, the Kd is 247 ± 260 pM.
On to B5, for which binding was characterised by a dissociation constant (Kd) of 57 ± 3 pM.
For B6, the affinity, expressed as Kd, was 250 ± 20 pM. Against the preceding molecule, the Kd is about 4.4-fold higher.

A further data set concerns the molecule itself. Put plainly: negative-stain electron microscopy, single-particle analysis; TLL-2 ~10 ug/ml in 10 mM HEPES, 500 mM NaCl, 2 mM CaCl2, pH 7.4 on carbon-coated grids, 4% uranyl acetate.
Settings: not given
As for B7, the “stoichiometry N” value worked out at 2.
